Assay results published in patent US20240026407A1, “MODIFICATION OF SAPONINS” (GLAXOSMITHKLINE BIOLOGICALS SA, priority 2020, published 2024).

Columns and labels:
Assay type in all cases: biochemical, Quillaja saponaria
[1] = Experiment 5-1: screening of additional glucosidases for deglycosylation with purified QS-18 (0.04 mg/ml) at pH 7.5 and 30 deg C; details: pH 7.5, 30 degrees C, 18 hours, LCMS/MS
Protocol: The 94 additional genes, together with positive control (DNA encoding SEQ ID No. 262) and negative control, were transformed, expressed, lysed and reacted in the same manner as described above for Experiment 4-1, except the reaction was incubated at 30 degrees C. for 18 hours.
Samples were analysed by LCMS/MS according to the procedure in Experiment 4-1.

[2] = Experiment 5-3: screening of additional glucosidases for deglycosylation with QS-18 in treated bark extract (80%) at pH 6 and 35 deg C; details: TBE 80% (QS-21 approx. 4 g/L), pH 6, 35 deg C; UV HPLC
Protocol: Experiment 5-1 was repeated, replacing CBE with Treated Bark Extract (TBE) at pH 6. TBE was prepared from CBE by PVPP treatment and concentration, to provide TBE with a QS-21 concentration of approximately 4 g/L. TBE was adjusted to pH 6 by dropwise addition of 2M NaOH with stirring.

[3] = Experiment 5-2: screening of additional glucosidases for deglycosylation with QS-18 in crude bark extract (80%) at pH 6 and 35 deg C; details: CBE 80%, pH 6, 35 deg C, 18 hours; UV HPLC
Protocol: A plate was lysed at pH 6 as described in Experiment 4-2. 40 uL of clarified lysate was transferred to a reaction plate
The pH of CBE was adjusted to pH 6 by dropwise addition of 2M NaOH with stirring. 160 uL of pH 6 CBE was added to each well of the reaction plate. The reaction plate was sealed and incubated at 35 deg C. with shaking for 18 hours.
The reaction plate was quenched by adding 200 uL of MeCN (2% acetic acid (AcOH), 1 mg/mL hexanophenone) to each well of the plates. The quenched reaction plate was re-sealed and incubated at 20 deg C. with shaking for 10 min. The reaction plate was then centrifuged (10 min, 4 degC).
200 uL was transferred from each well of the quenched plate to the corresponding wells of a fresh 96 well plate and sealed. The plate was analysed by UV HPLC with the method of Experiment 4-4.

[4] = Experiment 6-1: screening of rhamnosidases for derhamnosylation of saponins in treated bark extract (2%), QS-17 2310 to QS-18 2164 (PAR %); details: TBE 2%, pH 7.5, 30 degC, 18 h; TIC peak area ratio percent, LCMS/MS; negative controls 3.061, 2.429
[5] = Experiment 6-1: screening of rhamnosidases for derhamnosylation of saponins in treated bark extract (2%), desglucosyl-QS-17 2134 to QS-21 1988 (PAR %); details: TBE 2%, pH 7.5, 30 degC, 18 h; TIC peak area ratio percent, LCMS/MS; negative controls 2.719, 2.158
[6] = Experiment 6-1: specificity of rhamnosidases towards other rhamnose residues (C3 saccharide rhamnose, C28 saccharide rhamnose); details: TBE 2%, pH 7.5, 30 degC, 18 h; LCMS/MS; negative controls 0.18, 0.17
[7] = Experiment 6-3: screening of rhamnosidases for derhamnosylation of saponins in crude bark extract (80%), relative % of Left, Middle and Right Peak by UV HPLC; details: CBE 80%, pH 7.4, 30 degC, 19.5 h
Outline: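 Clarified lysates of expressed rhamnosidase variants were incubated with crude bark extract (pH 7.4, final 80%) at 30 degC with shaking for 19.5 h, then quenched with MeCN+2% AcOH. UV HPLC gave relative % of Left (QS-17), Middle (QS-18/desglucosyl-QS-17) and Right (QS-21) peaks.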

[8] = Experiment 6-2: screening of rhamnosidases for derhamnosylation of saponins in treated bark extract (25%), relative % of Left, Middle and Right Peak by UV HPLC; details: TBE 25%, pH 7.4, 19.5 h
[9] = Experiment 6-1: screening of rhamnosidases for derhamnosylation of saponins in treated bark extract (2%), QS-17 2296 to QS-18 2150 (PAR %); details: TBE 2%, pH 7.5, 30 degC, 18 h; TIC peak area ratio percent of rhamnosylated starting saponin to derhamnosylated product, LCMS/MS; negative controls 4.876, 5.225
[10] = mainly QS-21 family, negative control 26%

Molecule	Experiment 5-1 % conv [1]	Experiment 5-3 % conv [2]	Experiment 5-2 % conv [3]	Peak57 (PAR %) [4]	Peak75 (PAR %) [5]	ratio PP/QS-21 [6]	Left Peak ([7]; mainly QS-17 family, negative control 27%)	Middle Peak ([7]; mainly QS-18 and desglucosyl-QS-17 family, negative control 48%)	Right Peak [7, 10]	Left Peak ([8]; mainly QS-17 family, negative control 24%)	Middle Peak ([8]; mainly QS-18 and desglucosyl-QS-17 family, negative control 50%)	Right Peak [8, 10]	QS-17 (PAR %) [9]
804 (protein, listed as Microbacterium trichothecenolyticum) MTETATSTHTDSVQHLVPLLDRLTLEQKAALVQGADFWTTVPLPEIGLRAMTLSDGPAGVRGPRWDEREPSLNLPSGSALAASWDVDLAYRYGAAAASEARRKGVDVVLGPTINLHRSPLGGRHFECFSEDPELTAELAAAYVRGLQDNDVAACPKHYVANDSETDRFTVDVRVDERALRENYLAPFERAVDAGAWTIMSAYNAVDGVTMTENDLLETPLNSEWGFDGVVISDWTAVRSLDSVPAAQDLAMPGPAPAWADLVAAIRDGRLNEADLDRKVLRVLLLAQRVGALGEREPREPAPLDGPAFAREAAIEGTVLLRNEGVLPLDASSLGRVAVIGQNAREARTQGGGSATVIPESVVSPLDAIRAAVPGADVGFEIGAVVQEGVAEIPLAHLTNPATGEAGIRVAFFDADGTELFAENRRSTALVWFGGDAPIAASATVVFETLYTPAETGDIELGFAGANPGKLYVDGQLVLDDSPVIEGTDLGAAFLNPPSITATVAVEAGRETAVRVEFSRESHGALSGALSATLGIAPERTDADELIARAVAEAAASDLAIVVVGTNSKVESEGYDRTSLDLPGRQDDLVRAVAATGTPTVVVVNAGSPVVLPWAEDVAAVVQGYFGGQEFGHAIADVLTGAAEPGGRLPTTWPAALADVPVTEVVPTDGRLEYREGLHIGYRAWLKADAVPAFAFGHGLGYTTWSWGAAQRTGDTVEVTLANTGHRRGKQVVQVYAERPESAVERPERWLVGFATVHAAPGETVTATIPVPARRLAHWAGEWTVESGAYTLRAGASVADLPLSLEWRIAS	83.2%	<0.5%	<0.5%										
888 (protein, uncultured Microbacterium sp.) MTESVAHLRPLLDALTLEQKAALVQGADFWTTVPLPEIGLRAMTLSDGPSGVRGPRWDEREPSLNLPSGSALAASWDVDLAYRYGAAAASEARRKGVDVVLGPTINLHRSPLGGRHFECFSEDPELTAELAAAYVRGMQDNGVAATPKHYVANDSETDRFTVDVDVDDRALRELYLAPFERAVEAGAWSVMSAYNAVDGVTMTENDLLETPLNSEWGFDGVVVSDWTAVRSLDAVAAAQDLAMPGPAPAWADLLAAVRDGRVQEADLDRKVLRLLLLAERVGALEGSTALEPAPVDAEAFAREAGIEGTVLLRNTGALPLDVAAIRSIAVIGHNARDARTQGGGSATVLPERTVSPLDGLREALPEADLRYEIGAVVQEGVAEIPVAQLRNPETGEPGLRVRFLDEDGAELFSEDRRSTALVWFGGDAPVAASSRVVFETVFTPAETGEIQLGFAGANPGRLYVDDRLVLDDTPVIEGTDLGAAFLNPPSLTAGVSVEQDTPIRVRVEFTLARGGALAGALSATVGIAPEATDPEALIARAVEAAAAADVAVVVVGTNSKVESEGYDRIDLDLPGRQDDLVRAVAATGTPVVVVVNAGSPVVLPWADEVSAIVQGYFGGQEFGHALADVLTGAAEPGGRLPTTWPATLADVPVQDVTPQDGVLTYGEGIHVGYRAWLKDAATPAFPFGHGLGYTTWSWGAAHRHGDAVDVTVRNTGDRAGKQVVQVYAERGDSSVDRPVRWLVGFATVHAEPGETVTATVPVPGRRLAHWADGWVVEPGAYTLRAGASVDDLPLALEWTVAE	78.0%	<0.5%	<0.5%										
881 (protein, listed as Treponema azotonutricium) MTSKEIIPQMTLEEKAALCSGRDFWSLKGIERFGLEAIMVTDGPHGLRKQGGDGDHLGLNQSVPATCFPAACATACSFDRSLLEEIGAAMGEECRKEKVAVLLGPAANIKRSPLCGRNFEYISEDPFLTGEIAAALIKGVQKLGVGTSLKHYAVNNQEKRRMTINAVVDERAFREIYLAGFEKAVREAKPWTLMCSYNKINGTYASENKKLLTDILRDEWAYQGLVMTDWGASNNRLEGIKAGLDLQMPGPDADNDKRIIEAVKSGALSIEDLDKVVARVVDLIIKAGEGDSIGFACDMEAHHLLARRAAAESAVLLKNDENILPLVPGKTLAVIGAFAISPRYQGAGSSKINPSHLDKAFDAIMRTGIKAEYAPGYSLEAGSGVNEKLIAEAAKLAGEKDSAVVFAGLPDEYESEGFDRASMDMSESHNKLIEAVAKANPNTVVVLQLGSPVALPWADKVKGILLLYLSGQAGGGAAADLLTGNACPGGKLAETWPLALEDNPSYGNFPGSTKTVEYRESIFAGYRWYDALEKEVRYPFGFGLSYTSFEYSDLKLGTSAEAKDNFKKGDALKVSFTVKNTGSREGSETAQLYIAPDASVLFRAKKELKGFEKLHLKPGESKTVTLILDERSFAYYNVQAKDWSLEGGLYRILIGASSRDIRLEGKLELTGDKRETAFAFLKGGRPVFDDASFKAIYGAELPPKERLPGEPFTVNTSVEEIKDTPIGKALFGMAVQGLEQAFGKEKSDLKVMMESMLMDMPLRGLGMMSGGRLTPPVIEALVEALNGKPNPIASGLLGMK	77.5%	<0.5%	<0.5%										
1017 (protein, listed as Kribbella flavida) MSFPAAPARLRFEHRTDPGPVLGIGTATPRLSWQVPTAPDDYRQAGYEVEIARGDAAPEQYTVDSADQVLVPWPGTPLAARESATVRVRVRGDGDWSQWSDPATVEAGLLSADDWTARFVSPRENAGHEAPAPLIGGVIDLPADIAQARLYATAHGIYEPTLNGTRVGDEQLAPGWTAYEQRLRYQTYDVTDLVAPGENRLELLVGNGWYRGRLGFHGKHSLYGDRLAVLAQLEVTTATGEVKVLASDGTWTTRETNVLADDLYDGQHVDLRRTLGEPGPVDVLDADLSLLVAPDGPPVRVTDVLPAKAVTTSPAGKTLVDFGQNVVGRLRLRVRGGAAGDEIVLRHAEVLEDGELGVRPLRTAKATDSFVLAGPDEVTLEPTLTFHGFRYAEITGVPDLRAEDVEAVVVGSDLRRTGWFESSHPLLDRFHENVVWGMRGNFLDVPTDCPQRDERLGWTGDIQVFSPTASFLFDTAGFLTNWLADLIAEQHKDGSVPFVVPDVLRQPGPATAAWGDAATIVPWVLYERTGDAGLLARQLPSMRAWVDRMAGLAGDDLLWVGGFQFGDWLDPTAPPDDPFRAKADPDVLATAHLARSAEVVALAAEVVGAGELAREYAELAARVRQAFAAEYTTGSGRVLSDAATNYALALQWALLPTEAQRKRAGERLADLVRTAGFRISTGFVGTPLMADALADSGHPDLAYRLLLETGCPSWLYAVTMDATTVWERWDSMLPDGSINPGQMTSFNHYALGAVADWMHRRVAGLAPGDPGYRRIVVDPLFTAHLTKASARHLTPYGEAAVAWSRSGGRVRLEVTVPVGARARVAVPGESAPVEVGHGTHEWTADDVYGETPPLPADATIRQLIDHEPSWTTLAAAATRTGIVADDAELAGRLERYLDHPATELVDAVSPRGFSPSAEALQAELDSVLGR				0.004%	0.000%	0.19	17%	56%	27%	6%	63%	31%	0.017%
